Source: paper doi:10.1101/2021.07.22.453398
Read-outs that look alike come from different tables or passages of the source.

Columns and labels:
[1] = target: bison NHA2ΔN (structural construct, tag removed by TEV) (Bison bison); experiment: cryo-EM structure
[2] = target: bison NHA2ΔN (structural construct, tag removed by TEV) (Bison bison); experiment: cryo-EM structure; remark: listed apart in the source

stoichiometry N [1]: 2
stoichiometry N [2]: 2
Substance: bison NHA2ΔN (structural construct, tag removed by TEV) (domain or fragment)
